In PMC9931213, “Structural basis for ATG9A recruitment to the ULK1 complex in mitophagy initiation” (Science Advances, 2023):

B1: MBP-FOLDON-ATG9A (692–839) [bacteriophage T4 | human] / TSF-ATG13^HORMA:GST-ATG101 complex, wild type [human] (parent complex)
chain 1: QLQSLVLSEYASTEMSLHALYMHQLHKQQAQAEPERHVWHRRESDESGESAPDEGGEGARAPQSIPRSASYPCAAPRPGAPETTALHGGFQRRYGGITDPGTVPRVPSHFSRLPLGGWAEDGQSASRHPEPVPEEGSEDELPPQVHKV
chain 2: METDLNSQDRKDLDKFIKFFALKTVQVIVQARLGEKICTRSSSSPTGSDWFNLAIKDIPEVTHEAKKALAGQLPAVGRSMCVEISLKTSEGDSMELEIWCLEMNEKCDKEIKVSYTVYNRLSLLLKSLLAITRVTPAYRLSRKQGHEYVILYRIYFGEVQLSGLGEGFQTVRVGTVGTPVGTITLSCAYRINLAFMS
chain 3: MNCRSEVLEVSVEGRQVEEAMLAVLHTVLLHRSTGKFHYKKEGTYSIGTVGTQDVDCDFIDFTYVRVSSEELDRALRKVVGEFKDALRNSGGDGLGQMSLEFYQKKKSRWPFSDECIPWEVWTVKVHVVALATEQERQICREKVGEKLCEKIINIVEVMNRHEYLPKMPTQSEVDNVFDTGLRDVQPYLYKISFQITDALGTSVTTTMRRLIKDTLAL

Variants of: B1
Assay: GST pull-down; n = 3; read off a plot

| Variant | ratio to parent |
| --- | --- |
| chain 2 Y118D | ~0.03 |
| chain 2 W50D | ~0.02 |
| chain 2 Y115D | ~0.97 |
| chain 3 Y45D | ~0.02 |
| chain 2 K15D | ~0.26 |
| chain 2 E83L | ~0.88 |
| chain 3 W110D, chain 3 F112D | ~0.8 |
| chain 2 F16D | ~0.1 |
| chain 2 F19D | ~0.02 |
| chain 2 K18D | ~0.11 |
